This series concerns the molecule itself. The series can be described thus: non-reducing SDS-PAGE; serum proteins pulled down by immobilised LL37, 15% non-reducing SDS-PAGE, Coomassie; monomer to dimer.

B1: apolipoprotein A-II (Apo-AII) of human serum (natural protein)
chain: not shown
notes: Dimeric under non-reducing conditions; In serum it stands in HDL particles together with lipids; also called 17 kDa protein; source: endogenous, crude human serum
One may read the stoichiometry N as the number of molecules, sites or subunits per partner or assembly. For the protein B1, the “stoichiometry N” value amounted to 2.
